Data taken from patent publication US7812117B2, “Vasostatin as marrow protectant” (The United States of America as represented by the …, priority 1998, dated 2010).

Experiments:
[1] = tested on: human Burkitt lymphoma cell line CA46; assay: CA46 tumor size and weight in irradiated BALB/c nu/nu mice treated with MBP or MBP-vaso; type: in vivo; settings: 400 rad, CA46 s.c.; MBP 40 μg/mouse/day or MBP-vaso 60 μg/mouse/day s.c.
Experimental: (§1) To examine this further, 7 week old BALB/c nu/nu mice were first irradiated with 400 rad. After 24 hr, the mice were incoculated s.c. with the human Burkitt lymphoma cell line CA46. One group of mice (n=12) was treated s.c. with the control protein maltose binding protein (MBP, 40 μg/mouse/day), whereas another group (n=12) was treated s.c. with MBP-vaso (60 μg/mouse/day). Some of the mice from each group were killed on day 15, whereas the other mice were kept for up to 2.5 months.

[2] = tested on: murine Lin- bone marrow cells enriched with hematopoietic progenitors; assay: Proliferation of lineage-negative bone marrow population enriched for hematopoietic progenitors; type: cell-based, mouse
Experimental: FIG. 11 is a set of two bar graphs showing the proliferative responses of unseparated (FIG. 11A) and purified (FIG. 11B) bone marrow cell populations in response to vaso. Bone marrow cell populations, obtained from the femural cavities of C57BL/6NCR mice (9 weeks of age) were either used as such or were further purified by negative selection as lineage negative (CD5, CD45R, CD11b, Gr-1 and TER119) cells by magnetic cell depletion. Both cell populations were incubated (0.5×10^6 cells/ml) in culture medium supplemented with IL-3 (20 ng/ml) with or without vaso (10 μg/ml). Cell proliferation was measured by ^3H thymidine incorporation during the final 22 hr of a 4, 5 or 6-day (D) culture. Data shown reflects the mean of triplicate cultures.
The examples described above utilized unpurified populations of murine bone marrow cells derived from the femur. To characterize the cell or cells within the bone marrow cell population that are targets of stimulation by vaso, cell separation experiments were performed. […]
The effects of vaso were tested on this cell population that is enriched with murine hematopoietic cells, and compared with unseparated bone marrow populations. […] On days 4 and 5, cell proliferation was measured. […]

human CD34+ cells = assay: Proliferation of purified human peripheral blood CD34+ cells; type: cell-based
Experimental: FIG. 12 is a bar graph of the proliferative responses of human CD34-positive cells to vaso. Human CD34-positive cells purified (>90% purity) from the peripheral blood of a normal individual after G-CSF mobilization following standard procedures were cultured (1×10^6 cells/ml) in 24 well tissue culture plates in RPMI 1640 medium supplemented with 15% FBS. […] Vaso was added at 10 μg/ml. Cell proliferation was measured during the final 22 hr of a 5, 6 or 9 day culture by ^3H thymidine incorporation. Data is shown as the mean of triplicate cultures.
To this end, CD34+ cells were purified to a high degree of homogeneity (>90% purity) from the peripheral blood of normal donors, according to established protocols (Mavroudis et al. Bone Marrow Transplant 21:431-40, 1998).
The purified human CD34+ cells along with the negatively selected CD34− mononuclear cell population were cultured in RPMI 1640 medium containing 15% FBS. Human Stem Cell Factor (300 ng/ml) and Flt-3 ligand (300 ng/ml) were added to the culture medium. […] Thus, purified hematopoietic cells from both mouse and man proliferate in response to vaso.
Vaso, calreticulin fragment 103-163, calreticulin fragment 120-146, and calreticulin fragment 128-146 (all used at 10 μg/ml) were tested in side-by-side assays for their ability to stimulate murine bone marrow hematopoietic cells in the presence of IL-3 (20 ng/ml). […]

[3] = tested on: bone marrow hematopoietic cells; assay: Radiation-induced toxicity in irradiated tumor-bearing BALB/c nu/nu mice (appearance, femural bone marrow histology); type: in vivo, mouse
Experimental: This healthier appearance was due, in part, to the larger weight of mice treated with vaso compared to the controls.
as §1

[4] = IL-3 alone or IL-3 together with IL-6 and Stem Cell Factor

B1: vaso: N-terminal domain of calreticulin (amino acids 1-180, SEQ ID NO:3); given as fusion protein with maltose binding protein, MBP-vaso (protein)
chain: EPAVYFKEQFLDGDGWTSRWIESKHKSDFGKFVLSSGKFYGDEEKDKGLQTSQDARFYALSASFEPFSNKGQTLVVQFTVKHEQNIDCGGGYVKLFPNSLDQTDMHGDSEYNIMFGPDICGPGTKKVHVIFNYKGKNVLINKDIRCKDDEFTHLYTLIVRPDNTYEVKIDNSQVESGSLE
modifications: Vasostatin
- tumor size [1]: 0.67 cm^2
- tumor weight [1]: 0.22 g
- cell growth of murine bone marrow cells enriched for hematopoietic cells by negative selection [2, 4]: similarly stimulated cell growth
- increase in cell proliferation on day 5 ([2]; enriched marrow, vaso 10 μg/ml, IL-3 20 ng/ml): 3.3 fold
- cell growth of purified human CD34+ peripheral blood cells (human CD34+ cells; [4]): similarly stimulated cell growth
- proliferation of CD34+ cells (human CD34+ cells; vaso 10 μg/ml, Stem Cell Factor 300 ng/ml and Flt-3 ligand 300 ng/ml): responded with increased proliferation
- appearance of irradiated mice ([3]; BALB/c nu/nu mice, 400-450 rad, injected s.c. with human tumor cell lines, vs buffer control): appeared healthier
- femural bone marrow histology after 400 rad total body irradiation ([3]; MBP 40 μg/mouse/day or MBP-vaso 60 μg/mouse/day s.c. after irradiation): can protect the hematopoietic tissue from radiation-induced toxicity
